Experimental findings from US20240336686A1 (ELPISCIENCE SUZHOU BIOPHARMA, published 2024) are described below.

The target of test [1] is T1, Full length human SIRPα v1 with beta-gal fragment (ED) at its C-terminal, in K562 cells (human, UniProt P78324 31-504). As to the kind of experiment: cell-based or functional assay.
The target of test [2] is T2, human SIRPα v1 on CHOK1 cells (human, UniProt P78324 31-504).
T2 construct: whole, on cells; also called CHOK1-hSIRPα v1; cell surface human SIRPα v1
Description: FACS, CHOK1 cells stably expressing human SIRPα v1.

Test [3] concerns the target T3, human SIRPα v2 ECD recombinant protein (human).
T3 construct: extracellular domain; Coated on the ELISA plate
As to the kind of experiment: competitive ELISA, plate-coated human SIRPα v2 ECD; blocked ligand: mFc tagged human CD47 ECD. The procedure: (§1) Competitive ELISA assay was used to determine whether the purified chimeric antibodies can block CD47 and SIRPα interaction. Briefly, antibody and mFc tagged human CD47 ECD recombinant protein were co-incubated with ELISA microplate coated human SIRPα v1 ECD or human SIRPα v2 ECD recombinant protein. The concentration of soluble ECD of CD47 is 25 nM, and the concentration of soluble ECD of SIRPα is 20 nM. After washing, HRP labeled anti-mouse Fc 2nd antibody (Sigma) was added and incubated at 37° C. for 1 hour. Then, 100 μl/well of TMB solution (Biotechnology) was added. After incubation for 15 minutes at room temperature, the reaction was stopped by the addition of 50 μl of 1N HCl. OD 450 nm was read. Blocking ratio was determined by blockade of human SIRPα ECD recombinant protein binding to ELISA microplate coated human CD47 ECD recombinant protein. All antibodies as tested can block interaction between human CD47 and different human SIRPα variants.
(§2) The humanized antibodies were tested for the ability to block CD47 and SIRPα interaction with competitive ELISA assay (refer to methods described above).

The target in test [4] is T4, human SIRPα v1 ECD recombinant protein (human, UniProt P78324 31-373).
T4 construct: extracellular domain; Coated on the ELISA plate
Description: competitive ELISA, plate-coated human SIRPα v1 ECD; blocked ligand: mFc tagged human CD47 ECD. On the procedure:
as §1, §2
In general terms: In an ELISA, binding on a coated surface is turned into a signal by an enzyme label.

The next test has as its target T5, Human SIRPα v2 (human).
T5 construct: also called human SIRPα v2 (antigen of the Biacore assay)
As to the kind of experiment: SPR (Biacore), 1:1 binding model. On the procedure: The humanized antibodies were characterized for binding affinity against human SIRPα v1, human SIRPα v2 using Surface Plasmon Resonance technology (Biacore system). The association and dissociation curves were fit with 1:1 binding model, and the Ka/Kd/KD values for each antibody were calculated.

Test [5] addresses T6, human SIRPα v2 on CHOK1 cells (human, UniProt P78324 31-504).
T6 construct: whole, on cells; also called CHOK1-hSIRPα v2; cell surface human SIRPα v2
As to the kind of experiment: FACS, CHOK1 cells stably expressing human SIRPα v2. Background: In flow cytometry, cells or beads pass a laser one at a time.

Test [6] addresses T7, human Claudin18.2 protein (Octet assay) (human, UniProt P56856-2 1-261, limits assumed).
T7 construct: UniProt P56856 isoform A2 corresponds to Claudin18.2; also called CLDN18.2
T7 sequence (looked up): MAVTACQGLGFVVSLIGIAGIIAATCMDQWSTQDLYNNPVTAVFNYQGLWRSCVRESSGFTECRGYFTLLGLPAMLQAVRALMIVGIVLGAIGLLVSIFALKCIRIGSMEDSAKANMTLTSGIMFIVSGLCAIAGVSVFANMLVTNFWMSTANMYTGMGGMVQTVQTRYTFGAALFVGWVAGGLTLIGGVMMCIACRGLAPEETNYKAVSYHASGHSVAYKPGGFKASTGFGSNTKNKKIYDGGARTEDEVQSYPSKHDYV
Description: Octet; antibody on sensor, Claudin18.2 protein in solution. The procedure: The Anti-Claudin18.2/SIRPα bispecific protein were characterized for binding affinity against human Claudin18.2 or SIRPα using Octet assay (ForeBio) according to manufacturer's manual, separately. Briefly, the antibodies were coupled on sensors and then the sensors were dipped into Claudin18.2 or SIRPα protein gradients (start at 200 nM, with 2-fold dilution and totally 8 doses). Their binding responses were measured in real-time and results were fit globally.
A general note: BLI is a label-free optical method that tracks binding on a fibre tip over time.

For test [7], the target named is T6, human SIRPα v2 on CHOK1 cells. As to the kind of experiment: FACS, CHOK1 cells stably expressing human SIRPα v2. An excerpt: (§3) Binding activity of the purified chimeric antibodies against human SIRPα variants was detected by FACS assay using CHOK1 cells or 293F cells stably expressing human SIRPα v1 and CHOK1 cells stably expressing human SIRPα v2. […] EC₅₀ and top signal calculated using GraphPad Prism9.0.
The source holds these as a separate data set.

Test [8] deals with T2, human SIRPα v1 on CHOK1 cells. As to the kind of experiment: FACS, CHOK1 cells stably expressing human SIRPα v1.
Excerpt: as §3
This is another data set of the same source.

For test [9], the target named is T4, human SIRPα v1 ECD recombinant protein. Description: competitive ELISA, plate-coated human SIRPα v1 ECD; blocked ligand: mFc tagged human CD47 ECD. The procedure: as §1
The source holds these as a separate data set.

In test [10] the target is T1, Full length human SIRPα v1 with …. As to the kind of experiment: cell-based or functional assay. The source holds these as a separate data set.
The target of test [11] is T3, human SIRPα v2 ECD recombinant protein. As to the kind of experiment: competitive ELISA, plate-coated human SIRPα v2 ECD; blocked ligand: mFc tagged human CD47 ECD. On the procedure:
as §1
This is another data set of the same source.

Residue numbers refer to the chain shown, from its start. Names and notes keep the numbering of the source. Read-outs that look alike come from different tables or passages of the source.

T1 sequence (P78324 31-504): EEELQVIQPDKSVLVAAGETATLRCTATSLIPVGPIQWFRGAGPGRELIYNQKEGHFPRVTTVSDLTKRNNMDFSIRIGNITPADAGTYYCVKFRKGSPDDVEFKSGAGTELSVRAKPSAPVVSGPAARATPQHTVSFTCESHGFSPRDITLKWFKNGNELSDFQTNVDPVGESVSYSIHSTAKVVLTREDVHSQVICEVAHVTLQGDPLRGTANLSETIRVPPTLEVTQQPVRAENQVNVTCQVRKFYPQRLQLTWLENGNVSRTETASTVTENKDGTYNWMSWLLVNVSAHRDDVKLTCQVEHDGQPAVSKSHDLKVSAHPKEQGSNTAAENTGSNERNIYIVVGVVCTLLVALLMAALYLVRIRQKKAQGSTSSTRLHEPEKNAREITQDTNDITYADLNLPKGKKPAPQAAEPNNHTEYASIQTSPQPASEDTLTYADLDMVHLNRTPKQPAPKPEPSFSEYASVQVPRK
T2 sequence (P78324 31-504): as above
T4 sequence (P78324 31-373): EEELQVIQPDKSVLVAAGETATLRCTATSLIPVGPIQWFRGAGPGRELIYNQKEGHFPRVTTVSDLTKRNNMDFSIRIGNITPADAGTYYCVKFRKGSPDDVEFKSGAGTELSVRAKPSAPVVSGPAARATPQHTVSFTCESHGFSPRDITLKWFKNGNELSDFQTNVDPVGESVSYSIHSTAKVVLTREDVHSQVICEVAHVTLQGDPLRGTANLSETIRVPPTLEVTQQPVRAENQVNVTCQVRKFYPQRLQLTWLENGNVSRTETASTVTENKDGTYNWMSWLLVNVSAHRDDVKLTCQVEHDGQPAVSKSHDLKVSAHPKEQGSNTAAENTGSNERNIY
T6 sequence (P78324 other isoform, or with tags, fused parts or gaps limits assumed): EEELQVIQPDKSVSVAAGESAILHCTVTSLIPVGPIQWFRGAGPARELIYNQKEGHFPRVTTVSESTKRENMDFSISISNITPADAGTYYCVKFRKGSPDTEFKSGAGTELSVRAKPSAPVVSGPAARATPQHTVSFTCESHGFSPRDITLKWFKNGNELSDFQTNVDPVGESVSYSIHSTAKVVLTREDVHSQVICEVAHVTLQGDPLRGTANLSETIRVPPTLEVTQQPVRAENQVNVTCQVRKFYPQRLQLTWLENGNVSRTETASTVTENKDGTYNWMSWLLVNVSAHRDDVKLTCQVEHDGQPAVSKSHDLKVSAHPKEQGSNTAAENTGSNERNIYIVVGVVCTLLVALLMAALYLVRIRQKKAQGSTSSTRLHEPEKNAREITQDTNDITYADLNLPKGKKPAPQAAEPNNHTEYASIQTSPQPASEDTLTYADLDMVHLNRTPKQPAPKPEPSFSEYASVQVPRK

B1: Humanized anti-SIRPα antibody hu025.021 (antibody, V domains shown)
VH: EVQLVQSGAEVKKPGATVKISCKVSGFNIKDYYMHWVQQAPGKGLEWIGRIDPEDAETKYAPKFQGRVTITADTSTNTAYMELSSLRSEDTAVYYCDRGLAYWGQGTLVTVSS
VL: EIVLTQSPATLSLSPGERATLSCSASSSVSSSYLYWYQQKPGQAPKLWIYSTSNLASGIPARFSGSGSGTDYTLTISSLEPEDFAVYYCHQWSSYPYTFGQGTKLEIK
notes: Humanized from C25
Turning to B1, in test [1], the “IC50 (SHP-1 recruitment blocking)” value is 0.1 nM and the “TOP blocking (SHP-1 recruitment)” value was determined as 86.3%. In [2], the EC50 (in general, the concentration at which the effect is half-maximal) is 1.08 nM and the “TOP MFI” value was 56400 MFI. Also, in test [3], the IC50 (in general, the concentration at which inhibition is half-maximal) came to 1.96 nM and the TOP blocking was found to be 98.3%. For the same molecule, in test [4], the IC50 worked out at 2.07 nM and the TOP blocking was 97.7%. In the test with Human SIRPα v2, the Kd (as a rule, the equilibrium constant for the complex coming apart) came out at 3.39 nM; the koff (as a rule, the rate constant with which the complex falls apart) came out at 0.0056 s⁻¹; the kon (as a rule, the rate constant with which the complex forms) is 1.65e+06 M⁻¹ s⁻¹. For the same molecule, in test [5], the EC50 stood at 0.87 nM and the “TOP MFI” value was found to be 46400 MFI.

B2: Humanized anti-SIRPα antibody hu025.059 (antibody, V domains shown)
VH: B1 VH with V24A
VL: B1 VL
notes: Humanized from C25
In the case of B2, in [1], the “IC50 (SHP-1 recruitment blocking)” value worked out at 0.1 nM and the “TOP blocking (SHP-1 recruitment)” value was found to be 78.8%. In addition, in [2], the EC50 is 1.05 nM and the “TOP MFI” value was determined as 59400 MFI. Also, in test [3], the IC50 worked out at 2.03 nM and the TOP blocking came to 98.3%. Further, in test [4], the IC50 was found to be 2.48 nM and the TOP blocking was 97.1%. In the test with Human SIRPα v2, the Kd was found to be 2.76 nM, the koff worked out at 0.00392 s⁻¹ and the kon came out at 1.42e+06 M⁻¹ s⁻¹. Further, in test [5], the EC50 amounted to 0.75 nM and the “TOP MFI” value was determined as 47300 MFI.

B3: Humanized anti-SIRPα antibody hu025.033 (antibody, V domains shown)
VH: B1 VH with N77D
VL: B1 VL
notes: Humanized from C25
With B3, in test [1], the “IC50 (SHP-1 recruitment blocking)” value worked out at 0.19 nM and the “TOP blocking (SHP-1 recruitment)” value was found to be 84.5%. Moreover, in [2], a half-maximal response (EC50) required 0.99 nM and the “TOP MFI” value came out at 53800 MFI. Further, in [3], the IC50 worked out at 1.88 nM and the TOP blocking came out at 98.3%. In test [4], the IC50 worked out at 2.22 nM and the TOP blocking is 97.2%. In addition, in test [5], a half-maximal response (EC50) required 0.62 nM and the “TOP MFI” value is 39800 MFI.

B4: Anti-Claudin18.2 antibody hu26.H1L2 (S92A) (antibody, V domains shown)
VH: EVQLLESGGGLVQPGGSLRLSCAASGFTLSSYALSWVRQAPGKGLEWVSYISNLGGSTFYPDTVKGRFTISRDNSKNTLYLQMNSLRAEDTAVYYCAKHLYNYDAFASWGQGTLVTVSS
VL: DIQLTQSPSFLSASVGDRVTITCRASSSVNYIHWYQQKPGKAPKALIYATSNLASGVPSRFSGSGSGTEYTLTISSLQPEDFATYYCQQWNANPLTFGQGTKLEIK
notes: Humanized monoclonal antibody; also called Anti-Claudin18.2, hu26.H1L2 (S92A)
In test [6], B4 displayed a Kd of 1.81 nM, a koff of 6.25e-05 s⁻¹ and a kon of 34500 M⁻¹ s⁻¹.

B5: Anti-SIRPα antibody C15 (antibody, V domains shown)
VH: EVQLQQSGVEVVQPGASVKLSCTASGFNIEAYYMHWVKQRTEQGLEWIGRIDPEDGESKYAPKFQGKATMTADTSSSTAYLQLSSLTSDDTAVYYCVRGSYEYWGQGTTLTVSS
VL: QIVLTQSPAIMSASPGEKVTLTCSASSSVSSSYLYWYQQKPGSSPKLWIYSTSNLASGVPPRFSGSGSGTSYSLTISSMQAEDAASYFCYQWSSYPYTFGGGTKLEIK
notes: Mouse variable regions; tested as purified chimeric antibody; also called 015c
As to B5, in [7], the EC50 was determined as 1.58 nM and the “TOP MFI” value turned out to be 50100 MFI. Moreover, in [8], the EC50 turned out to be 1.49 nM and the “TOP MFI” value amounted to 80000 MFI. In [9], the IC50 is 2.32 nM and the TOP blocking stood at 96.4%. Also, in test [10], the “IC50 (SHP-1 recruitment blocking)” value was determined as 0.09 nM and the “TOP blocking (SHP-1 recruitment)” value was determined as 73.5%. In addition, in test [11], the IC50 was found to be 2.45 nM and the TOP blocking was determined as 96.7%.

B6: Anti-Claudin18.2/SIRPα bispecific antibody ES028-009 (bispecific antibody)
light (part 1 of 2): B5 VL with P61A, Q80E, Y90H
light (part 2 of 2): GGGGSGGGGSGGGGSDIVMTQSPDSLAVSLGERATINCKSSQSLLNAGNQKNYLTWYQQKPGQPPKLLIYWSSTRESGVPDRFSGSGSGTDFTLTISSLQAEDVAVYHCQNNYYYPLTFGGGTKLEIKGGGGSGGGGSGGGGSGGGGSQVQLVQSGAEVKKPGASVKVSCKASGYTFTNWVHWVRQAPGQGLEWMGEINPTNARSNYNEKFKKRVTMTRDTSTSTVYMELSSLRSEDTAVYYCARIYYGNSFAHWGQGTLVTVSS
heavy: EVQLQQSGAELVKPGASVKLSCTASGFNIKDYYMHWVKQRTEQGLEWIGRIDPEDGETKYAPKFQGKATITADTSSNTAYLQLSSLTSEDTAVYYCDRGLAYWGQGTLVTVSA
notes: not shown: CL; CH1-Fc
In test [6], B6 registered a Kd of under 0.001 nM, a koff of under 1e-07 s⁻¹ and a kon of 21100 M⁻¹ s⁻¹.

B7: Anti-SIRPα antibody C59 (antibody, V domains shown)
VH: QVQLQQSGPELVKPGASVKMSCKASGYTFSEYVLSWVKQRTGQGLEWIGEIYPGTITTYYNEKFKGKATLTADKSSNTAYIQLTSLTSEDSAVYFCGRFYDYDGGWFAYWGQGTLLTVSA
VL: ENVLTQSPEKMAVSLGQKVTMTCSASSSVSSSDLHWYQQKSGASPKPLIHGTSNLASGVPARFSGSGSGTSYSLTISSVEAEDAATYYCQQWSGYPWTFGGGTNLEIK
notes: Mouse variable regions; tested as purified chimeric antibody; also called 059c
Consider B7, for which, in [7], the EC50 worked out at 12 nM and the “TOP MFI” value was found to be 19600 MFI. Besides, in [8], the midpoint of the response, the EC50, lay at 1.45 nM and the “TOP MFI” value turned out to be 69800 MFI. Besides, in test [9], the IC50 was 2.63 nM and the TOP blocking worked out at 97%. In test [10], the “IC50 (SHP-1 recruitment blocking)” value amounted to 0.07 nM and the “TOP blocking (SHP-1 recruitment)” value was found to be 66.9%. Moreover, in test [11], the IC50 is 54.1 nM and the TOP blocking stood at 84.4%.
